According to paper doi:10.1101/2025.09.10.675359:

Target: recombinant human CD4 (rCD4) (human, UniProt P01730 26-396)
Test: BLI

B1: Apt62 (Aptamer 62) (structured_DNA)
DNA: ATCCAGAGTGACGCAGCACCACCACCGTACAATTCGCTTTCTTTTTTCATTACCTACTCTGGCTTTTT
Question: How did the Kd turn out when B1 was run?
Answer: 536 nM
